In article PMC7998030:

How the values were obtained:
[1] = target: JF646-labeled Mcm2-7 (MCM) hexamer on DNA after incubation with ORC, Cdc6 and ATP (S. cerevisiae) (UniProt P29469); assay: single-molecule fluorescence colocalisation on optically trapped DNA (confocal microscopy, bleaching-step counting); bulk incubation of 5 nM ORC, 10 nM Cdc6, 100 nM MCM-Cdt1 with 1 nM 21.2 kbp DNA in 5 mM ATP for 30 min at 30°C, then high-salt wash (500 mM NaCl) in the flow cell before imaging; MCM hexamer with MCM hexamer (double hexamer) on DNA
[2] = target: JF646-labeled Mcm2-7 (MCM) hexamer on DNA after incubation with ORC, Cdc6 and ATP (S. cerevisiae) (UniProt P29469); assay: single-molecule fluorescence colocalisation on optically trapped DNA (confocal microscopy, bleaching-step counting); bulk incubation of 5 nM ORC, 10 nM Cdc6, 100 nM MCM-Cdt1 with 1 nM 21.2 kbp DNA in 5 mM ATP for 30 min at 30°C, diluted 1000x, injected into the flow cell and imaged, no high-salt wash; all proteins on DNA

JF646-labeled Mcm2-7 (MCM) hexamer on DNA after incubation with ORC, Cdc6 and ATP, P29469 1-868; P24279 1-971; P30665 1-933; P29496 1-775; P53091 1-1017; P38132 1-845
percent of foci with 2 MCM after high-salt wash [1]: 24% | stoichiometry N [1]: 2 | percent of MCM-only foci with two or more MCMs [2]: 52%
